Data: article PMC4005659, “TcaR–ssDNA complex crystal structure reveals new DNA binding mechanism of the MarR family proteins”

Target: TcaR (Staphylococcus epidermidis RP62A (ATCC …, UniProt A0A0H2VJZ8 1-151))
Assay: X-ray crystallography; 1:1 TcaR dimer:ssDNA; 40% ethylene glycol, 0.1 M Tris pH 7.0; 3.6 A; EMSA: 20 mM Tris-HCl pH 8.0, 150 mM KCl, 0.1 mM MgCl2, 0.05 mM EDTA, 12.5% glycerol, 0.1 mM DTT, 1 mg/ml BSA, 15 min, room temperature; ssDNA 12 uM, TcaR 2-24 uM
Conditions: protein: recombinant; tags: N-terminal His6; chain copies: 2; single strand

CGCAGCGCGCAGCCCTA (ssDNA) [17-mer GC-rich ssDNA]
binding result: binds
